Reference: patent US20240417436A1 (BRIGHT PEAK THERAPEUTICS, published 2024)
Bridges are numbered along the chain shown (N, C = ends). Primed or numbered codes have the meaning given here. [ ]: non-standard residue; d: D form. Ygp″ = O-(PEG8-amino)-tyrosine (O-(8x polyethylene glycol-amino)-tyrosine); Yn3″ = O-(PEG9-azido)-tyrosine (O-(9x polyethylene glycol-azido)-tyrosine); Ygp = O-(8x polyethylene glycol-amino)-tyrosine; Yn3 = O-(9x polyethylene glycol-azido)-tyrosine; cleavable moiety = not defined here; Ygp(3) = O-(PEG8-amino)-tyrosine; Yn3(3) = O-(PEG9-azido)-tyrosine; PEG4′ = 4x polyethylene glycol; PEG9″ = 9x polyethylene glycol; hSer = N[C@@H](CCO)C(=O)O; Nle = CCCC[C@H](N)C(=O)O

How the values were obtained:
[1] = molecular target: T1, IL-2 receptor βγ complex on pan T cells (human, UniProt P14784 27-551; P31785 23-369); test: cell-based or functional assay
T1 sequence (looked up) 1: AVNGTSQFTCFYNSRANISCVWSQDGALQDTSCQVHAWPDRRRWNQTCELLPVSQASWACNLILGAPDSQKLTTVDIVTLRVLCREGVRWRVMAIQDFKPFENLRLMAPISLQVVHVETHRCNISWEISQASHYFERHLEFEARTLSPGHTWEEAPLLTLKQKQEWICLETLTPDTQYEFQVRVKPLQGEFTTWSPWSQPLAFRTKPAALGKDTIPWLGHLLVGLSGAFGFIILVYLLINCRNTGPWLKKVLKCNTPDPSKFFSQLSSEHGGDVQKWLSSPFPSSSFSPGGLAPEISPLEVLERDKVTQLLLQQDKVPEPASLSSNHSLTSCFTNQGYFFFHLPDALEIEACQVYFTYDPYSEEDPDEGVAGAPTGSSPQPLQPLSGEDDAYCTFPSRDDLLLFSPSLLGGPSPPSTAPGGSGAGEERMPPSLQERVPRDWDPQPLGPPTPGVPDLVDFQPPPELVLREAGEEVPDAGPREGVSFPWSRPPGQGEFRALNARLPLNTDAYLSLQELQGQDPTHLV
T1 sequence (looked up) 2: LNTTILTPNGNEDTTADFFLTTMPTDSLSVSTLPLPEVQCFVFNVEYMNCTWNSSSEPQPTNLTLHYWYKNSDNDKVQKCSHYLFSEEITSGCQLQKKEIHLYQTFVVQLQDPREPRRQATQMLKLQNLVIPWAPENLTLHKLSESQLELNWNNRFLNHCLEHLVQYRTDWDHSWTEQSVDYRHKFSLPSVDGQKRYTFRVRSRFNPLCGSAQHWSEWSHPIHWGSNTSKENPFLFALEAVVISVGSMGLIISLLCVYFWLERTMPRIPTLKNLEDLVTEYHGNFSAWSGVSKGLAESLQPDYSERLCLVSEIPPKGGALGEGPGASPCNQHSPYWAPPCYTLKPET

[2] = molecular target: T2, Avi-Tag Fc with human IL-2R beta and IL-2R gamma attached (Acrobiosystems ACRB-ILG-H82F3-25UG) (human, UniProt P14784 27-239; P31785 23-262); test: BLI (Octet), receptor on SAX2 sensor, MMP2-treated IL-2 as analyte
T2 construct: bought heterodimer; also called CD122 CD132; CD122/CD132 complex
T2 sequence (looked up) 1: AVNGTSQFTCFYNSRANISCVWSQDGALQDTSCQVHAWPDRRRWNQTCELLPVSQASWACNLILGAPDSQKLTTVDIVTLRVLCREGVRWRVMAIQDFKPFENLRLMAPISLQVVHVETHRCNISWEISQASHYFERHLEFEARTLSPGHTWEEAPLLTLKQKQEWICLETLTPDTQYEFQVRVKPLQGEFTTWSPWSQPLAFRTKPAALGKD
T2 sequence (looked up) 2: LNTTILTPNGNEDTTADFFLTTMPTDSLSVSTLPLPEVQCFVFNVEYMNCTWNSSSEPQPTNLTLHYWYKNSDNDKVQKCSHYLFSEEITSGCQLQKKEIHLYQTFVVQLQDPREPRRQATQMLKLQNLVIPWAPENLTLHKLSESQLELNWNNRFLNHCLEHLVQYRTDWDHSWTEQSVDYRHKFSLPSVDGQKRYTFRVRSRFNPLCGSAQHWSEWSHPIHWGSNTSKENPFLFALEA
Experimental: (§1) Bilayer interferometry (BLI) assays were used to measure the binding constants between activatable IL-2 polypeptides (and activated versions thereof) to IL-2 receptor subunits or receptor complexes. BLI assays were conducted on an Octet® R8 instrument. Assay plates were 96 well, polypropylene, F-bottom (chimney well), black microplates (Greiner Bio-one, Cat. No: 655209). The biosensors were Octet® SAX2 (Sartorius, Cat. No: 18-5136). The assay buffer was 1× Kinetic Buffer (Sartorius, Cat. no: 18-5136) or Phosphate Buffered Saline (PBS) that contained 0.02% (v: v) Tween 20 (Polysorbate 20) and 0.1% (w/v) bovine serum albumin (BSA). The sensor was regenerated between measurements in 10 mM glycine pH 2.7 buffer.
(§2) Sensor attached receptors were either recombinant human IL-2 receptor beta containing a His-tag and Avi-Tag™ (R&D Systems™ #AVI10459) or an Avi-Tag™ Fc with human IL-2R beta and IL-2R gamma attached (Acrobiosystems Cat. no: ACRB-ILG-H82F3-25UG). Receptors were reconstituted from lyophilized powder to 500 μg/ml in PBS. Analytes were diluted in Kinetic buffer to 300 nM, then serially diluted to lower concentrations.

[3] = molecular target: T3, recombinant human IL-2 receptor beta containing a His-tag and Avi-Tag (R&D Systems #AVI10459) (human, UniProt P14784 27-239); test: as above
T3 construct: bought protein, held on the Octet SAX2 sensor; also called CD122; IL-2Rβ
T3 sequence (looked up): T2 sequence (looked up) 1
Experimental: as §1, §2

[4] = molecular target: T2, Avi-Tag Fc with human IL-2R beta and …; test: BLI (Octet), receptor on SAX2 sensor, IL-2 as analyte
Experimental: as §1, §2

[5] = molecular target: T3, recombinant human IL-2 receptor beta …; test: as above
Experimental: as §1, §2

B1: CMP-303 (ligand)
chain: PLGLAGAPTSSSTKKTQLQLEHLLLDLQEILNGINNYKNPKLTR[Nle]L[hSer][Yn3]KF[Ygp][Nle]PKKATELKHLQCLEEELKPLEEVL[hSer]LAQSKNFHLRPRDLISNINVIVLELKGSETTF[hSer]CEYADETATIVEFLNRWITFSQSIISTLT
modifications: linker N-29 via PEG4′; ends not checked
B1 was tested, and the “Average EC50, pSTAT5 assay in pan T cells, intact molecule” value (shortened to “Average EC50 … intact molecule”) [1] was 97.9 nM.

B2: CMP-166, MMP2 cleaved (ligand)
chain: APTSSSTKKTQLQLEHLLLDLQKILNGINNYKNPKLTRXLXYKFYXPKKATELKHLQCLEEELKPLEEVLXLAQSKNFHLRPRDLISNINVIVLELKGSETTFXCEYADETATIVEFLNRWITFSQSIISTLT
modifications: not fully specified; as CMP-166 but cleavable peptide cut by MMP2 (macrocycle opened); cut site not given
In the case of B2, the Kd [2] is reported as 1.21 nM, the koff [2] is reported as 0.000684 s⁻¹ and the kon [2] is reported as 567000 M⁻¹ s⁻¹. The Kd [3] was 794 nM, the koff [3] was 0.225 s⁻¹ and the kon [3] was 283000 M⁻¹ s⁻¹. The “Average EC50, pSTAT5 assay in pan T cells, MMP2 cleaved molecule” value (“Average EC50 … MMP2 cleaved molecule” below) [1] was 4.36 nM.

B3: CMP-303, MMP2 cleaved (ligand)
chain: PLGLAGAPTSSSTKKTQLQLEHLLLDLQEILNGINNYKNPKLTR[Nle]L[hSer][Yn3]KF[Ygp][Nle]PKKATELKHLQCLEEELKPLEEVL[hSer]LAQSKNFHLRPRDLISNINVIVLELKGSETTF[hSer]CEYADETATIVEFLNRWITFSQSIISTLT
modifications: ends and bridges not checked; also: cleaved by MMP2 within the cleavable peptide, macrocycle opened, cut site not given here, PEG4 linker
For B3, the “Average EC50 … MMP2 cleaved molecule” value [1] was 4.4 nM.

B4: CMP-305 (ligand)
chain: APTSSSTKKTQLQLEHLLLDLQKILNGINNYKNPKLTR[Nle]L[hSer][Yn3]KF[Ygp][Nle]PKKATELKHLQCLEEELKPLEEVL[hSer]LAQSKNFHLRPRDLISNINVIVLELKGSETTF[hSer]CEYADETATIVEFLNRWITFSQSIISTLT
modifications: linker 15-23 via cleavable moiety; ends not checked; also: cleavable peptide of the bridge not defined
B4 was tested, and the “Average EC50 … intact molecule” value [1] was 128 nM.

B5: CMP-304 (ligand)
chain: PLGLAGAPTSSSTKKTQLQLEHLLLDLQEILNGINNYKNPKLTR[Nle]L[hSer][Yn3]KF[Ygp][Nle]PKKATELKHLQCLEEELKPLEEVL[hSer]LAQSKNFHLRPRDLISNINVIVLELKGSETTF[hSer]CEYADETATIVEFLNRWITFSQSIISTLT
modifications: linker N-29 via PEG9″; ends not checked
In the case of B5, the “Average EC50 … intact molecule” value [1] is reported as 110 nM.

B6: CMP-165, MMP2 cleaved (ligand)
chain: APTSSSTKKTQLQLEHLLLDLQKILNGINNYKNPKLTR[Nle]L[hSer][Yn3]KF[Ygp][Nle]PKKATELKHLQCLEEELKPLEEVL[hSer]LAQSKNFHLRPRDLISNINVIVLELKGSETTF[hSer]CEYADETATIVEFLNRWITFSQSIISTLT
modifications: disulfide 58-105 (inferred); not fully specified (residue 23, N-terminus); also: MMP2 cleaved, ring opened, cut site not given here, peptide remnants on N-terminus (via glutaryl) and on Lys23 side chain
For B6, the Kd [2] was 1.88 nM, the koff [2] was 0.00114 s⁻¹ and the kon [2] was 608000 M⁻¹ s⁻¹. It also gave a Kd [3] of 1110 nM, a koff [3] of 0.237 s⁻¹ and a kon [3] of 213000 M⁻¹ s⁻¹. For the same binder, the “Average EC50 … MMP2 cleaved molecule” value [1] was 1.42 nM.

B7: CMP-304, MMP2 cleaved (ligand)
chain: PLGLAGAPTSSSTKKTQLQLEHLLLDLQEILNGINNYKNPKLTR[Nle]L[hSer][Yn3]KF[Ygp][Nle]PKKATELKHLQCLEEELKPLEEVL[hSer]LAQSKNFHLRPRDLISNINVIVLELKGSETTF[hSer]CEYADETATIVEFLNRWITFSQSIISTLT
modifications: ends and bridges not checked; also: cleaved by MMP2 within the cleavable peptide, macrocycle opened, cut site not given here, PEG9 linker
For B7, the “Average EC50 … MMP2 cleaved molecule” value [1] was 8.61 nM.

B8: CMP-138 (ligand)
chain: APTSSSTKKTQLQLEHLLLDLQ[Nle]ILNGIENYKNPKLTR[Nle]L[hSer][Yn3]KF[Ygp][Nle]PKKATELKHLQCLEEELKPLEEVL[hSer]LAQSKNFHLRPRDLISNINVIVLELKGSETTF[hSer]CEYADETATIVEFLNRWITFSQSIISTLT
modifications: disulfide 58-105; bridge N-29; not fully specified (residue 29, bridges)
For B8, the Kd [4] was 12.3 nM, the koff [4] was 0.00284 s⁻¹ and the kon [4] was 232000 M⁻¹ s⁻¹. For the same binder, the Kd [5] was 11.7 nM, the koff [5] was 0.0105 s⁻¹ and the kon [5] was 898000 M⁻¹ s⁻¹.

B9: CMP-319 (ligand)
chain: RGRRVANLVGAPTSSSTKKTQLQLEHLLLDLQEILNGINNYKNPKLTR[Nle]L[hSer][Yn3(3)]KF[Ygp(3)][Nle]PKKATELKHLQCLEEELKPLEEVL[hSer]LAQSKNFHLRPRDLISNINVIVLELKGSETTF[hSer]CEYADETATIVEFLNRWITFSQSIISTLT
modifications: lactam N-33; not fully specified (bridges)
B9 was tested, and the Kd [4] was 9.19 nM, the koff [4] was 0.000786 s⁻¹ and the kon [4] was 85500 M⁻¹ s⁻¹. For the same binder, the Kd [5] was 59.5 nM, the koff [5] was 0.0122 s⁻¹ and the kon [5] was 206000 M⁻¹ s⁻¹.

B10: CMP-136 (ligand)
chain: APTSSSTKKTQLQLEHLLLDLQ[Nle]ILNGIENYKNPKLTR[Nle]L[hSer][Yn3″]KF[Ygp″][Nle]PKKATELKHLQCLEEELKPLEEVL[hSer]LAQSKNFHLRPRDLISNINVIVLELKGSETTF[hSer]CEYADETATIVEFLNRWITFSQSIISTLT
modifications: disulfide 58-105; bridge N-29; not fully specified (residue 29, bridges); also: cleavable peptide sequence not given here
B10 was tested, and the Kd [4] was 12.6 nM, the koff [4] was 0.00498 s⁻¹ and the kon [4] was 396000 M⁻¹ s⁻¹. It also gave a Kd [5] of 8.44 nM, a koff [5] of 0.00767 s⁻¹ and a kon [5] of 909000 M⁻¹ s⁻¹.

B11: CMP-305, MMP2 cleaved (ligand)
chain: APTSSSTKKTQLQLEHLLLDLQKILNGINNYKNPKLTR[Nle]L[hSer][Yn3]KF[Ygp][Nle]PKKATELKHLQCLEEELKPLEEVL[hSer]LAQSKNFHLRPRDLISNINVIVLELKGSETTF[hSer]CEYADETATIVEFLNRWITFSQSIISTLT
modifications: ends and bridges not checked; also: cleavable moiety between Glu15 and Lys23 side chains cut by MMP2, macrocycle opened, cut site not given here
For B11, the “Average EC50 … MMP2 cleaved molecule” value [1] was 3.26 nM.
